From PMC6053597, “Coupling of polymerase and carrier lipid phosphatase prevents product inhibition in peptidoglycan synthesis” (The Cell Surface, 2018) come the findings set out here.

Assay [1] concerns the target T1, PBP1B (Penicillin-binding protein 1B), untagged (E. coli, UniProt P02919 58-804).
T1 sequence: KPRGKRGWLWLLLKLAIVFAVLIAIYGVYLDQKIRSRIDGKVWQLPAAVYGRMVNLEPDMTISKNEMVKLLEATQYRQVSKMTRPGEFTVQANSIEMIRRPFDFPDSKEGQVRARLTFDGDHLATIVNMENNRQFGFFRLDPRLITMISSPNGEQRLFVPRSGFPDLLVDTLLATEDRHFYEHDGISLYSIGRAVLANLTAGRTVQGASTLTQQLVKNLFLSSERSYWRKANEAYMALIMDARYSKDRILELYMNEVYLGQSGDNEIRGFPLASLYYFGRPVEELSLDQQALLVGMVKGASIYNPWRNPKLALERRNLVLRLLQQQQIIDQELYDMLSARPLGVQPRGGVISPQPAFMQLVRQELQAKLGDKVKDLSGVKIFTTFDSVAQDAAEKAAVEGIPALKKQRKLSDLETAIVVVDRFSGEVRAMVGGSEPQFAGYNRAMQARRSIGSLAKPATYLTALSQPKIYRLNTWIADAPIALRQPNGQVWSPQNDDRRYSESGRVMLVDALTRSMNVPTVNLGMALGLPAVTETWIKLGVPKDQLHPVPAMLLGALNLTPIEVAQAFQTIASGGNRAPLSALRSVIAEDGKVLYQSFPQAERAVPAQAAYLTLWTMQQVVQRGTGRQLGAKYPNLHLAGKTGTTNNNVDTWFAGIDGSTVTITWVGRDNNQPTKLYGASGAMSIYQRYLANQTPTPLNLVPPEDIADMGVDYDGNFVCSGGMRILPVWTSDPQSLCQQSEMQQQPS
As to the kind of experiment: cell-based or functional assay.

The target in assay [2] is T1, PBP1B (Penicillin-binding protein 1B), …. Put plainly: SPR; PBP1A or PBP1B covalently immobilised via their TPase active site on a sensor chip with bound ampicillin; PgpB-ht injected at 0.125-2 μM in 10 mM Tris/maleate pH 7.5, 150 mM NaCl, 5 mM imidazole, 5 mM β-mercaptoethanol, 0.05% DDM; 25 °C, 75 μL/min; equilibrium response fitted to a 1:1 model; apparent KD. The following applies: both partners purified.

B1: PgpB-ht (C-terminal His6-tagged version of PgpB) (enzyme, E. coli)
chain: MRSIARRTAVGAALLLVMPVAVWISGWRWQPGEQSWLLKAAFWVTETVTQPWGVITHLILFGWFLWCLRFRIKAAFVLFAILAAAILVGQGVKSWIKDKVQEPRPFVIWLEKTHHIPVDEFYTLKRAERGNLVKEQLAEEKNIPQYLRSHWQKETGFAFPSGHTMFAASWALLAVGLLWPRRRTLTIAILLVWATGVMGSRLLLGMHWPRDLVVATLISWALVAVATWLAQRICGPLTPPAEENREIAQREQES
notes: PgpB, C55-PP pyrophosphatase (PAP2 family) of E. coli; amplified by PCR from genomic DNA of E. coli BW25113 and cloned into pET28a(+) (pET28a-pgpB); Purified according to Touzé et al., 2008a with modifications; also called oligohistidine tagged PgpB; source: E. coli C43(DE3), membrane fraction solubilised in DDM, purified (Ni-NTA); not shown: His6, C-terminal, kept
With B1, the “lipid II consumption by PBP1B in proteoliposomes of artificial lipids with PgpB at a 1:1 molar ratio, with LpoB(sol), TLC (PBP1B alone: less than 20%)” value in assay [1] turned out to be 63%. For the same molecule, the Kd in assay [2] worked out at 1050 nM.
